Laboratory results reported in patent US20110318377A1.

Target: Tat/FLAG (wild type HIV-1 Tat with FLAG tag, expressed in cells) (HIV-1)
Assay: cell-based or functional assay

Substance: endogenous Set9 (in Jurkat A2, HEK293 and HeLa cells) (from UniProt Q8WTS6 1-366)
- decrease in Tat transactivation of the HIV LTR (luciferase) in HeLa cells after Set9 siRNA: 50 percent
